For one molecule, Kd results are on record in PMC2896269 (The Journal of neuroscience : the official journal of the …, 2010).

This test has as its target HA-neuroligin-1(+B) (UniProt Q62765 46-843). In words: immunostaining of cells or tissue.

Chain of HA-neuroligin-1(+B) (Q62765 46-843): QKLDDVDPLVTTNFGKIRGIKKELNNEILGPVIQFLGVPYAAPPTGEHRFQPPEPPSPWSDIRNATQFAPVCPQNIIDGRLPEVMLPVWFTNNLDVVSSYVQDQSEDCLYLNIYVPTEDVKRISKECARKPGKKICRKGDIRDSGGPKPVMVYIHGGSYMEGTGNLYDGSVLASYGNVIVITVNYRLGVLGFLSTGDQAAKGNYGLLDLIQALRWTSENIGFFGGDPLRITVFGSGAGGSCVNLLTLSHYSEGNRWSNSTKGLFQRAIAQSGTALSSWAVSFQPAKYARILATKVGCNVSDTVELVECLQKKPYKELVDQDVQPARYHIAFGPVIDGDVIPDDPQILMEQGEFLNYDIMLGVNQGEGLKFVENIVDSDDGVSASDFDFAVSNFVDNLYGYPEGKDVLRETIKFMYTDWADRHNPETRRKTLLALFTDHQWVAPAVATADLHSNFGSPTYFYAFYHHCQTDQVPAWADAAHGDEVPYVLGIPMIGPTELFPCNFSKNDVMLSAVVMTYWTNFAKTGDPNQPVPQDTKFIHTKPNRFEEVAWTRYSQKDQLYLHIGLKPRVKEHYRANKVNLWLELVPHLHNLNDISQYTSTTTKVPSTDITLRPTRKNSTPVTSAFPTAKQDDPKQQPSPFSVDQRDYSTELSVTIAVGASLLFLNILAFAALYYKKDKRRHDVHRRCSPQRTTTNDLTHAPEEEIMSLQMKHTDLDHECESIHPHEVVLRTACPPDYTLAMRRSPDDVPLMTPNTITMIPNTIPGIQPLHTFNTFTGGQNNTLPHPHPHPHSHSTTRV

B1: Nrx1β(+S4)-Fc (Fc fusion)
chain: not shown
With B1, the Kd – broadly, the constant that tells how readily two partners part at equilibrium – is 26.9 nM.
